This series can be described thus: label from the status in PepcDB records.

As to “MCEYTYSNGKKCRRKPLKGSKYCSLHIPFEEGELLYGDRIKYIKKRAFERALERGIRNFEGVKLYDVIIVGKEINEALIFRNSIIKRLVIVTSKIKSLSLIDTTIDTLVIVNSEVDFFYVNGGSIYGVSICSVKFSSSILFRDSSIRYVMINSTEFSPKEVTTEEEFGEKVRIAGRIELANLKDVRRIALNSKYPLMAKIMEEFGIKLSLDRKKPVRVHTLTITGVEFDESPRFRKQVRIFINRFSGQLIFENLSVPGHVEIVNSRVRYPEFVHVIIHNNLVLRNTRLYSDENWNLAYLPNLLAELNVYGFIVIDNCQFNNPYLAEVFYRIARTTWEGSGDKENADEYYYLEMLARRKKVIQHYRKGPRTLKKMVKLLEVLFEFLFADLTCKYGTDWKRPVFLWMGLVIFVFPVFYALTKSVVPTSSLFDYVYFSIVTATTLGYGDLHPIGVGKVIASIEAIFGMFMWAVFLTVFARKYMR”, the protein production result is given as “failed”.

Turning to “MCGDCVEKEYPNRGNTCLENGSFLLNFTGCAVCSKRDFMLITNKSLKEEDGEEIVTYDHLCKNCHHVIARHEYTFSIMDEFQEYTMLCLLCGKAEDTISILPDDPRQMTLLF”, the protein production result is reported as “failed”.

Regarding “MCMLEPSKIFKALSNPINLKILTLLRSSSFHPRELARILNRDETDISRRLRQLERLGLIKGKWERVDGKNVRVYSLKVSEIRIFMHPTKLEVKVGENESYEAPIEWESSPRVEVFVGRKRELSIIRNAKGVVVIYGIAGIGKTSLAAKAFPNAYWYNVTGLEDFKYFAWQLGLFLSSIGFEDLLEYLRGGGNNENDIFKLITEGIEKTGAIIIIDDFHKFQDEKVNYLLSYLAPRIKKGKVIITTRIRPNLGNEGVTYVNLKGLNPEEAYSLAREKEKSMTPEEFAKLYKLTFGHPLMLNLILESSEILATGKDTVFNFLFEEVYQMLNEEEKDLLSILSLFDEPIEYEGIKFLYDRNPFVPLYSLMKKGLIEKKGEKYFVHDMVREFVREVSNQEEKEVYLRHVNFLLKSKTPINFLRAFKYAIKVGSSELIRNLVELRVKEFYRIIVDFPRMYQRLLMEVEDNPYAKIEIAIIEVQRGLFEKAIKLLKEAEPYVDEFFKCEIYSWLADAYMELENLEKAERYLKKTKEIVEKINDMYAWFSYYAEKTKYEYYKENSREALKSALKELEIIRKIGDPEKEGLVLLHVGDIYLHMGNYEKGISYYQEALKMAKAYGIKFLEHISYMELAKGYYQLKLYEKASEYSEKAANYFLMIRNYRRATDAMAYGSVSYIATKNLEKAEKFAKEMIRIAQSTDYPLAWAGYIFLAAVDFLKGDDWREDYNLGKAHLKEYPWLFEAVLDELKKVFDLSNFK”, the protein production entry is “failed”.

Consider “MCQTCLSWYARCVAPYFVHAGCSAGAFSQMRRRVIPRAEGVVVEVGFGSGLNLPYYDAARVERLVGIDPDGTMLGLAAPKSRAMPFAVECIRAGGESLPLADGIADTVVVTYAFCTIPDPQAALSEIRRVLKPRGRLIFIEHGQAEGPRGRRWQQRLNRLWGSIAGGCHLNRDPLRLIGGAGFRLLEVQHGRFPLPLWQLGSHHAGIAAAG”, for which the protein production entry is given as “failed”.

With “MCRSGSRCCPPIKLRVACVVAASILTARAGTYAIAACYVAALRVMDQRIAMSLQVLGAGLGRTGTLSLKFALEHLGFGPCYHATEVAANMRTALPLWNAAERGAADWSAIFAGYRSSTDHPGCYYWRQLIEVYPQAKVVLTVRDPDSWFESVTQTILMPGRKSTFVGPEGETFSTFLKQQMGGRSQDRAFMVDYFNRWNQAVIDTVPADRLLVFSARQGWAPLCSFLGVPVPHKPYPHLHARPRLRWFTRGLRLPDDVAARERHVREYLEYLREDLFG”, the protein production entry was “failed”.

“MCTGTKSFFLLQRFKLKEDVTMEQKPVLDVNEVPKPGKWLFLSIQHLFAMFGSTVLVPFLTGLNPSVALISSGLGTLAFLLITKGQVPAYLGSSFAFIAPIITAKTAGGPGAAMLGGLLAGLVYILISLGIKKSGSEWIMKLLPPIVVGPVVMVIGLALAHTAVNMAMNGADGKYSFTHFSVALVTLAITIICSIFGRGFFSIIPVLLGIIGGYIFAYFQGLVDLKPVAEAKWFVVPDFTVPFVTYTPEFSWKIVLLMVPVALVTISEHIGHQIVLGNVIKRDLIEKPGLHRSIFGDGVATLIASLIGGPPNTTYGENIGVLAITRAYSVYLFIGSAVFAIMFGFIGKISALIHSIPTPVMGGVSILLFGVIASSGLRMMVDDKTDLSDKRNLMIASVILVIGIGGAVLHVGESFQVEGMALAAIVGVLLNLLLPETKQIKQSKQIAS”: the protein production result was “failed”.

“MCYAASKLWNVCNYERHHYKELGLEKYPDWYYQKKAHKGDLWYRQLPSQTAQETCKQLDKAWKSFYVLKKTGGIKEPNPPRFKQDNIPVTYMQMGIRHEKGSDQLRLSLPRDLKSYMEETYGIHEKFLYLENKIFRNMDHIKQLRIYPPENGTCELIVIYEIEEPEQLSQNGHYLSVDLGLHNLMTCYDSGNGRTFILGRKYLSLERYFHKEIARVQSVWYAQQSERGIKYPKSSKHIQRLYRKKQNAVKDYLHKTTRWIAEYCRKEDIRCVVVGDIRNIRKEKDMGHKTNQKFHGLPYNRLYIMLEYKLKLYGIQLIKQEESYTSQCSPLSPEVSKRHAEASNRKERGMYITDGVRFNADAVGAFNILRKHLSVSGKQKEMSVTGLKTPEIIKVAA”: the protein production entry was “failed”.

For “MDAAKRGFPPVVDAKTCVLILGSLPGDASLAAGQYYGHPRNAFWRLMEGVIDAPLVVRAYEDRLVTLLAHGVGLWDVIETARRPGSLDAAIREPAANDLMALIDTLPALRLVAFNGGTAGRLGGRLIGTRVSTLALPSSSPAYAARTFAQKAAAWAALRDGLADTYSRPHPEPVEGPGRPPRRGRPAPRQP”, the protein production entry is on record as “failed”.

Take “MDAAVIVPAYNEAESLARCLAPFESQPVELVVVVGGDDGTEQVARDTPFVDTVVRCDEGGAGIARNRGAAAATAPILLFTDADTVVPEDWVRLHLRHYADDEVIGVGGPARPLEDSLKHRVLFKLLSDYWYRVSWPLGFVQQPGFNCSFRADAFKAAGGFNEDIPFMEDTELSLRMKDYGRIVYDADSCVATSARREADEGYVSLFAKYVRGYANHYILRREFDADYFLEHHHHHH”: the protein production result is “failed”.

Consider “MDAEEKDGVLYFEGQVLTGAKVNSVIDHTLLDFGCEAEETIVSCGEDTSNPHGTTEGPLRANAPIILDIFPRSKKKRYFADMTRTVLRGEASEKLKEMYETVLVAQQKALEMVKPGIHSSEIHRAVCDLFEARGYHTYRSGSKAGFTHSTGHGVGLDIHELPSVGESGVLLETGNVITIEPGLYYPGIGGIRLEDMVLVTKTGYENFTGLEKKFVLKSFYNLEHHHHHH”, for which the protein production result is recorded as “not failed”.

“MDAEGNLFMSWRDGGTFGIARINEQQNIVTPLIEADAANRILYANGLTVDRATGMLTAAHESVKEVTFTFDPREAWYPRQRNIKYSQSDLNSIVDADRYKNFVTFCPYDGYLYTRYRDGKIAKIDPNTFEGHIIHQGPSGSQYGQAINPAKPWLLYITLHSNAPTAYRQGISVLDLRDPDGTGGFKRLNAPGGSAFRDGPIEDALFNYPKDIKFDNDGNMFVADYGNHCIRMISADNIVTTVAGQPGVAGYKDGGPVESLFKNPWGVAVNEQGDIYIADWGNARIRKLVIELEHHHHHH”: the protein production entry was “failed”.

As to “MDAMEFFRQSAGQWRSQRTTHHLAFRRAENGDSSISVEALEKDDPRVIEICTMHEVDPATAIGGAYVSWQGSMEWDRDAEGHSGTTVFALVPDDASGRSGQLLRERGYAEIVPVIGRFELDENNNLNLVTDYETMSAVEQFWFMGPSLRLRASTVTRFGGLSTAAFCAEVRQTEAAADSEPLKADQLYSSLGW”, the protein production result was “failed”.

As to “MDAPTSQRYTAKARWLHWIMAALIVLAYTLILSRTQFGKGSEYRTLVVQSHFWVGIVVLVLAFFRVAERRRQRPPGITPPLEGVLRAAATLSHYALYAFLFTQPLLGLLTVMVEKGSLPIPLTDLQIPWPLPISDHTAEYFEDLHKLLGKIFYYVIGLHVVAALWHHIVRKDNTLKRML”, the protein production entry is recorded as “failed”.

In the case of “MDARIVNALIGSVYETIRDVLGIEPKTGKPSTVSHIEIPHSLVTVIGITGGIEGSLIYSFSSETALKVVSAMMGGMEYNQLDELALSAIGELGNMTAGKLAMKLEHLGKHVDITPPTVVSGRDLKIKSFGVILKLPISVFSEEDFDLHLSVKSGG”, the protein production result was “not failed”.

For the sequence “MDCCTENACSKPDDDILDIPLDDPGANAAAAKIQASFRGHMARKKIKSGERGRKGPGPGGPGGAGVARGGAGGGPSGD”, the protein production result is reported as “failed”.

Take “MDDGQDAGRSGHRKAATAREGAEAMKPETPGGTAALAKGLTLLDMVADAPEPPRFAELLRASGLPKPTFARILRTLIAYGLVRQDEARGTYVLGQRFLEMSHKVWESFDLVSAATPELERLAAELGETVALCRLDGTMTQYLAERSPNGLSVRVEVGRRVPLHCTAPGKALLAFQDPAVGRALLDRLTLDLQTAKTITTLDALQADLTLTRARGYSISYEEHLPGVNSVAAPVMGRDNTPMGVLVALGPSSRLDSSNIHPAGRELIAAARRITGAAGAVAISSRPRPRSATGRPSAELSCILPWGAQLGESPVWHEGEDALYWVDILHPAVHRFDPATGRNETCETGKLVSAVIPVTGGRLLVASQDGVEWLDFASGRLTPFVSPEAGIADNRLNDAKCGPDGAIWVGSMRIDASKPTGALYRINANGASERKEGGIIVSNGLGWSPDGRTFYFVDTVPGLIHAYDCDPATGALSQRREFARIPVADGRPDGLAVDAEGGVWCAIWDGWCVRRYLPNGKLDQVIDMPVPRPSSIAFGGPDLSTLFITSARTRLPASTLADAPLSGGLFSCRPGISGARIAMFEG”: the protein production entry was “failed”.

Take “MDDKAFTKELDQWVEQLNECKQLNENQVRTLCEKAKEILTKESNVQEVRCPVTVCGDVHGQFHDLMELFRIGGKSPDTNYLFMGDYVDRGYYSVETVTLLVALKVRYPERITILRGNHESRQITQVYGFYDECLRKYGNANVWKYFTDLFDYLPLTALVDGQIFCLHGGLSPSIDTLDHIRALDRLQEVPHEGPMCDLLWSDPDDRGGWGISPRGAGYTFGQDISETFNHANGLTLVSRAHQLVMEGYNWCHDRNVVTIFSAPNYCYRCGNQAAIMELDDTLKYSFLQFDPAPRRGEPHVTRRTPDYFL”: the protein production entry is reported as “failed”.

With “MDDNTPDLFAEPAAPEGDFLTLGRYAERQYLDYAVSVVKGRALPDVSDGQKPVQRRILYAMNEMGLGDNAKPVKSARVVGDVLGKYHPHGDQSAYDALVRLAQDFSMRYPLIDGQGNFGSRDGDGAAAMRYTEARLTPIAKLLLDEIDEGTVDFMPNYDGSFDEPKLLPARLPFVLLNGASGIAVGLATEIPSHNLREVAAAAVALIRHPALPHAELMQLVPGPDFPGGGQIISSDAEISAAYETGRGSLKVRARWKIEDLARGQWQLVVTELPPNTSCQKVLEEIEELTNPKLKAGKKTLTQEQINTKKTMLDLLDAVRDESGKDAPVRLVFEPKTRTIDQTEFVNSLLAHTSLESNAALNLVMIGEDGRPAQKGLASILGEWVRFRQATVTRRCRHRLGKVNDRIHILEGRMIVFLNIDEVIRIIREADEPKAALISAFGLTERQADDILEIRLRQLARLEKIKIEKELEELRAEKAKLEELLANESAMKRLMIKEIEADAKQYGDERRTLIQQEKRATFEAKVVDEPVTVVVSQKGWVRALKGHGLDPASFSFKAGDGLYAAFQCRTPDTLIAWGSTGRVYSVAVQVLPGGRGDGVPVTSLIELESGSHLLHYFAAPAEQPLLLASSNGFGFIAKIGDMVSRVKAGKSFMTIDTGAAPLAPMPVLPDASQVACLSSGGRLLVFGMDEMKTLSGGGRGVILMALDAKETLVQALAIDAAGVVLTGTGRGGKAQEEALAGGALEPHVGKRARKGRAPDTRLKVSGLRPVLG”, the protein production entry is reported as “failed”.

“MDDRTEYDVYTDGSYVNGQYAWAYAFVKDGKVHYEDADVGKNPAAATMRNVAGEIAAALYAVKKASQLGVKIRILHDYAGIAFWATGEWKAKNEFTQAYAKLMNQYRGIYSFEKVKAHSGNEFNDYVDMKAKSALGIRDLEHHHHHH”: the protein production result was “not failed”.

The values above are taken from a protein production outcome set (Wang et al. 2014).
